The text below walks through data of patent publication US20030105008A1 (BRIGHAM AND WOMEN S HOSPITAL, published 2003).

T1: GSTORC2 (GST fused to full-length human ORC2) (human, UniProt Q13416 1-577)
T1 construct: domain: full-length; also called GSTO2; not shown: GST tag of pFB-GST (baculovirus) or pGEX-5X-3 (bacterial)
T1 sequence (looked up): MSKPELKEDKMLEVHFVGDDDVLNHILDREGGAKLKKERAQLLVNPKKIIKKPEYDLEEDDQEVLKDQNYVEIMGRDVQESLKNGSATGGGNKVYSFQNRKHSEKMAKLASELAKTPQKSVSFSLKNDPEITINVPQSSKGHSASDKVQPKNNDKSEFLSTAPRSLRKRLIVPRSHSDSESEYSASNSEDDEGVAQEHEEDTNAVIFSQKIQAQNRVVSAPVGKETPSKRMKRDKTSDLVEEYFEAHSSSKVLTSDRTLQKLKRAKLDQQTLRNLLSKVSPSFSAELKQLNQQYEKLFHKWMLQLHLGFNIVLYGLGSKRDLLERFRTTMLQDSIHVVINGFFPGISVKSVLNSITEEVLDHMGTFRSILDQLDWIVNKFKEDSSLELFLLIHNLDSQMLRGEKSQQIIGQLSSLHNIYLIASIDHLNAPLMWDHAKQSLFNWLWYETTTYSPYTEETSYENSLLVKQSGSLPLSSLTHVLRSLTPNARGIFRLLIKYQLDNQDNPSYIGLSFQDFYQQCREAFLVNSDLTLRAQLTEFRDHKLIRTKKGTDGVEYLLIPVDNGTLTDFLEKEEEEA

T2: ORC2+3 core complex (human, UniProt Q13416 1-577; Q9UBD5 1-711)
T2 construct: Untagged ORC2 and ORC3 co-expressed in Sf9 cells with a GST-tagged third subunit; also called ORC2+3 subcomplex; ORC2-3 complex
T2 sequence (looked up) 1: T1 sequence (looked up)
T2 sequence (looked up) 2: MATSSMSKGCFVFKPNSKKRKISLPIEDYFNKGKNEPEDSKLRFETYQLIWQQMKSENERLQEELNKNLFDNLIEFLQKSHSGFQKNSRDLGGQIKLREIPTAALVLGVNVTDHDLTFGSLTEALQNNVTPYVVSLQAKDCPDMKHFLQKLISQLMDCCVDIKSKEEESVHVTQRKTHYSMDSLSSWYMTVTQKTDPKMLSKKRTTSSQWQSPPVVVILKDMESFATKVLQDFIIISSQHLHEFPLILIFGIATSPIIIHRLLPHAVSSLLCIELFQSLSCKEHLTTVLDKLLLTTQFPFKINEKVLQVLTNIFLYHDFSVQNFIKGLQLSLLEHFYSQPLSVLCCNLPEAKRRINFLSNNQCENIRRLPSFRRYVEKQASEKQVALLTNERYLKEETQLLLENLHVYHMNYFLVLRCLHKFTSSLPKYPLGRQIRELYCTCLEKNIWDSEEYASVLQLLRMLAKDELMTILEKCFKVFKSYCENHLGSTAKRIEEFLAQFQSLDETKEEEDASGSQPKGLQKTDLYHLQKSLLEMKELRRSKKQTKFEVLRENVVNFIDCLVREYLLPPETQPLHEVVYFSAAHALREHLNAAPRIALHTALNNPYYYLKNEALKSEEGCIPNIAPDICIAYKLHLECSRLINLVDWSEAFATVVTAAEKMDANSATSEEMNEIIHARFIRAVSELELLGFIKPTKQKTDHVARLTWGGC

B1: ORC3N (ORC3N200), N-terminal 200 amino acids of human ORC3 (other)
chain: MATSSMSKGCFVFKPNSKKRKISLPIEDYFNKGKNEPEDSKLRFETYQLIWQQMKSENERLQEELNKNLFDNLIEFLQKSHSGFQKNSRDLGGQIKLREIPTAALVLGVNVTDHDLTFGSLTEALQNNVTPYVVSLQAKDCPDMKHFLQKLISQLMDCCVDIKSKEEESVHVTQRKTHYSMDSLSSWYMTVTQKTDPKML
notes: also called construct 3
B2: GSTORC5 (GST fused to human ORC5) (other, UniProt O43913 1-435, looked up)
chain: MPHLENVVLCRESQVSILQSLFGERHHFSFPSIFIYGHTASGKTYVTQTLLKTLELPHVFVNCVECFTLRLLLEQILNKLNHLSSSEDGCSTEITCETFNDFVRLFKQVTTAENLKDQTVYIVLDKAEYLRDMEANLLPGFLRLQELADRNVTVLFLSEIVWEKFRPNTGCFEPFVLYFPDYSIGNLQKILSHDHPPEYSADFYAAYINILLGVFYTVCRDLKELRHLAVLNFPKYCEPVVKGEASERDTRKLWRNIEPHLKKAMQTVYLREISSSQWEKLQKDDTDPGQLKGLSAHTHVELPYYSKFILIAAYLASYNPARTDKRFFLKHHGKIKKTNFLKKHEKTSNHLLGPKPFPLDRLLAILYSIVDSRVAPTANIFSQITSLVTLQLLTLVGHDDQLDGPKYKCTVSLDFIRAIARTVNFDIIKYLYDFL
notes: Baculovirus-expressed; not shown: GST tag of the pFB-GST vector
B3: human ORC6, untagged (other, UniProt Q9Y5N6 1-252, looked up)
chain: MGSELIGRLAPRLGLAEPDMLRKAEEYLRLSRVKCVGLSARTTETSSAVMCLDLAASWMKCPLDRAYLIKLSGLNKETYQSCLKSFECLLGLNSNIGIRDLAVQFSCIEAVNMASKILKSYESSLPQTQQVDLDLSRPLFTSAALLSACKILKLKVDKNKMVATSGVKKAIFDRLCKQLEKIGQQVDREPGDVATPPRKRKKIVVEAPAKEMEKVEEMPHKPQKDEDLTQDYEEWKRKILENAASAQKATAE
B4: GSTORC4 (GST fused to human ORC4) (other, UniProt O43929 1-436, looked up)
chain: MSSRKSKSNSLIHTECLSQVQRILRERFCRQSPHSNLFGVQVQYKHLSELLKRTALHGESNSVLIIGPRGSGKTMLINHALKELMEIEEVSENVLQVHLNGLLQINDKIALKEITRQLNLENVVGDKVFGSFAENLSFLLEALKKGDRTSSCPVIFILDEFDLFAHHKNQTLLYNLFDISQSAQTPIAVIGLTCRLDILELLEKRVKSRFSHRQIHLMNSFGFPQYVKIFKEQLSLPAEFPDKVFAEKWNENVQYLSEDRSVQEVLQKHFNISKNLRSLHMLLMLALNRVTASHPFMTAVDLMEASQLCSMDSKANIVHGLSVLEICLIIAMKHLNDIYEEEPFNFQMVYNEFQKFVQRKAHSVYNFEKPVVMKAFEHLQQLELIKPMERTSGNSQREYQLMKLLLDNTQIMNALQKYPNCPTDVRQWATSSLSWL
notes: as for B2

In assay [1] the target is B2. Nature of the assay: glutathione beads from Sf9 cells co-expressing GSTORC5, ORC2, ORC4 and ORC3N; western blot. The procedure: (§1) The cell suspension was homogenized in a Dounce homogenizer using a B-type pestle followed by centrifugation at 3000 rpm for 7 min. The pellet containing the nuclei was lysed in buffer H/0.15 (50 mM HEPES.KOH, pH 7.5; 150 mM KCl; 0.02% NP-40; 5 mM Magnesium acetate; 1 mM EDTA; 1 mM EGTA; 10% glycerol, 1 mM PMSF, 2 μg/ml pepstatin, 2 μg/ml leupeptin, 5 μg/ml aprotinin, 1 mM DTT). The resulting suspension was subjected to ammonium sulfate precipitation (starting with 10% followed by 30% and finally 50%). The pellet following 50% ammonium sulfate cut was resuspended in buffer H/0.0 (no salt) and then dialyzed overnight against buffer H/0.15. […] Proteins were eluted using reduced glutathione elution buffer (50 Mm Tris.Cl, pH 8.0; 20 mM reduced glutathione; 0.01% NP-40; 100 mM NaCl). Gel filtration of glutathione eluate using fast protein liquid chromatography Superose 12 (Amersham Pharmacia Biotech Inc, Piscataway, N.J.) column was performed as described previously (Dhar, S. K. & Dutta, A. J Biol Chem 275:34983-8, 2000).

The target of assay [2] is T3, GST (glutathione S transferase), control protein (UniProt P08515 1-218 = GST).
T3 construct: Negative control in the pull-downs; also called control GST
T3 sequence (P08515 whole entry): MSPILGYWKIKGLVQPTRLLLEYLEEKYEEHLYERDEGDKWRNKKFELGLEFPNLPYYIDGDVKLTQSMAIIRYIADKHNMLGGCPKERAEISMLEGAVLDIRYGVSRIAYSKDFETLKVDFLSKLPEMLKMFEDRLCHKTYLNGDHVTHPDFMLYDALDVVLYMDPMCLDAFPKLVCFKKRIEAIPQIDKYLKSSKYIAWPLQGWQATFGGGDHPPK
Nature of the assay: GST pull-down of 35S-labelled in vitro translated ORC3N (control of the GSTORC2C experiment). The source says: (§2) Pull-down assays on glutathione agarose beads were done as described in (Lin, Y. L., et al., J Biol Chem 271:17190-8, 1996).

In assay [3] the target is T1, GSTORC2 (GST fused to full-length human …). The assay is described as follows: GST pull-down of 35S-labelled in vitro translated ORC3N on bacterially expressed GSTORC2.
Excerpt: as §2

The target of assay [4] is T2, ORC2+3 core complex. The assay is described as follows: co-expression of GSTORC5, ORC2 and ORC3 in Sf9 cells, glutathione beads, immunoblot. The procedure: as §1, with “Cells were harvested 48 hours post-infection. The cell pellet was washed once in cold phosphate buffered saline (PBS), and subsequently resuspended in hypotonic lysis buffer (10 mM Tris.Cl, pH 7.9; 10 mM KCl; 1.5 mM MgCl₂; 1 mM Phenylmethylsulfonyl Fluoride (PMSF); 2 μg/ml pepstatin; 2 μg/ml leupeptin; 5 μg/ml aprotinin; 1 mM DTT). The cell” for “The cell”
Background: Immunoblotting shows a protein as a band on a membrane.

Assay [5] deals with T4, ORC2, ORC3 and ORC4 co-expressed with GSTORC5 (human, UniProt Q13416 1-577; Q9UBD5 1-711; O43929 1-436).
T4 construct: The set of untagged subunits that come down with GSTORC5; written as one partner because the pairwise tests of GSTORC5 with each of them were negative; also called ORC2, 3 and 4
The assay is described as follows: GST pull-down on glutathione beads from Sf9 cells expressing human ORC1-6 with ORC5 GST tagged; immunoblot. The procedure:
as §1
(§3) To purify recombinant six protein human origin recognition complex, Sf9 insect cells were infected with baculoviruses expressing human ORC1-6 subunits.

The target of assay [6] is T5, complex of GSTORC5, ORC2, ORC3 and ORC4 (human, UniProt O43913 1-435; Q13416 1-577; Q9UBD5 1-711; O43929 1-436).
T5 construct: Complex purified on glutathione beads from Sf9 cells; also called GSTORC5, 2, 3 and 4; ORC2, 3, 4 and 5 core complex; not shown: GST tag of the pFB-GST vector
The assay is described as above. The procedure: as §1, §3

The target in assay [7] is T2, ORC2+3 core complex. Nature of the assay: co-expression of GSTORC4, ORC2 and ORC3 in Sf9 cells, glutathione beads, immunoblot. The procedure: as §1, with “Cells were harvested 48 hours post-infection. The cell pellet was washed once in cold phosphate buffered saline (PBS), and subsequently resuspended in hypotonic lysis buffer (10 mM Tris.Cl, pH 7.9; 10 mM KCl; 1.5 mM MgCl₂; 1 mM Phenylmethylsulfonyl Fluoride (PMSF); 2 μg/ml pepstatin; 2 μg/ml leupeptin; 5 μg/ml aprotinin; 1 mM DTT). The cell” for “The cell”

As to B1, the binding result is reported as “no binding” in assay [1], “no binding” in assay [2] and “binds” in assay [3].
Regarding B2, the binding result (in the assay with ORC2+3 core complex [4]; in assay [5]) was “binds” in each case.
As to B3, the binding result in assay [6] was “no binding”.
Take B4: the binding result in the assay with ORC2+3 core complex [7] was “no binding”.
